Sequences and labels used below:
B2: HaloTag (HT) alone (enzyme, Rhodococcus rhodochrous, UniProt P0A3G2 1-293, looked up)
chain: MSEIGTGFPFDPHYVEVLGERMHYVDVGPRDGTPVLFLHGNPTSSYLWRNIIPHVAPSHRCIAPDLIGMGKSDKPDLDYFFDDHVRYLDAFIEALGLEEVVLVIHDWGSALGFHWAKRNPERVKGIACMEFIRPIPTWDEWPEFARETFQAFRTADVGRELIIDQNAFIEGALPMGVVRPLTEVEMDHYREPFLKPVDREPLWRFPNELPIAGEPANIVALVEAYMNWLHQSPVPKLLFWGTPGVLIPPAEAARLAESLPNCKTVDIGPGLFLLQEDNPDLIGSEIARWLPAL
notes: Control bait without a fused partner, covalently captured on HaloLink resin; also called mutant dehalogenase protein

Test [1] concerns the target B2. Description: HaloLink resin pull-down, lane 1: HT alone as bait, 2 uM rapamycin, no DTTSP; release of fluorescent prey read on gel; text: showed no background binding of Prey. How it is done:
Remove final wash solution and add protein-protein crosslinked material to resin. Incubate at 22° C. for one hour. Wash resin 5×1 mL with 1×TBS+0.05% IGEPAL as described above. Remove final wash. At this point, the crosslinked protein-protein complex has been covalently captured and purified on the resin and can be resuspended in the desired buffer. In samples treated with the crosslinker DTTSP, resupend resin in 1×SDS Loading buffer containing 5 mM β-Me and boil at 95° C. for 5 minutes to reverse the protein-protein crosslinks. Analyse samples using SDS gel electrophoresis.

Test [2] has as its target T1, GST-cFos (UniProt P01100 1-380, fluorescently labeled using Lys-tRNA with FluoroTect Green (labelled lysines, positions not stated)).
T1 construct: N-terminal GST fusion expressed in rabbit reticulocyte lysate; also called Prey; not shown: GST, N-terminal fusion partner encoded by Flexi vector pFN2A (Promega)
Briefly: HaloLink resin pull-down, lane 3: HT alone as bait, no crosslinker; release of fluorescent prey read on gel.

T1 sequence (P01100 whole entry, the tested form may be a part): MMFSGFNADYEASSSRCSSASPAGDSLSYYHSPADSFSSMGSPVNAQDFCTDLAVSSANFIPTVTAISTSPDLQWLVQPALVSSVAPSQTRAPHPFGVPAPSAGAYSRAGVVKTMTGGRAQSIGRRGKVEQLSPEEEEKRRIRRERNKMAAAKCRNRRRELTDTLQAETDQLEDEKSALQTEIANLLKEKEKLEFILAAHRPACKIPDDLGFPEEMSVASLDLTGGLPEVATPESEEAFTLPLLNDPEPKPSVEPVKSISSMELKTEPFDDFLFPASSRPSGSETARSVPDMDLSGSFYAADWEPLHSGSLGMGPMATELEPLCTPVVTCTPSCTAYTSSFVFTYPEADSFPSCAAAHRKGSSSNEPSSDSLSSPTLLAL

B1: GST-Frb (other)
chain: ILWHEMWHEGLEEASRLYFGERNVKGMFEVLEPLHAMMERGPQTLKETSFNQAYGRDLMEAQEWCRKYMKSGNVKDLTQAWDLYYHVFRRISK
modifications: fluorescently labeled using Lys-tRNA with FluoroTect Green (labelled lysines, positions not stated)
notes: domain: Frb domain of Frap; N-terminal GST fusion expressed in rabbit reticulocyte lysate; linker not described; also called Prey; Frb domain of Frap; not shown: GST, N-terminal fusion partner encoded by Flexi vector pFN2A (Promega)
For the molecule B1, in test [1], the binding result is “no binding”.
B2: in test [2], the binding result is “no binding”.

These data come from patent US20070224620A1 (PROMEGA, published 2007).
